In the RNAGym collection of RNA variant scans (doi:10.1073/pnas.2313332121):

B1: TPR t1 (parent)
chain: GACCAAUCUGCCCUCAGAGCUCGAGAACAUCUUCGGAUGCAGAGGAGGCAGGCUUCGGUGGCGCGAUAGCGCCAACGUCCUCAACCUCCAAUGCAUCCCACCACAUGAUGAUGCCUGAAGAGCCUUGGUUUUUUG

Variants of: B1
Assay: polymerase ribozyme fitness, log enrichment relative to wild type (log ratio); higher = more active; in vitro selection for triplet polymerase activity
How it was run: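 Libraries of mutants in each subunit of a heterodimeric triplet polymerase ribozyme were generated by PCR and transcribed. In triplicate, each went through one in vitro selection round: annealing with biotinylated primer, partner subunit and triplets; frozen incubation at −7 °C; gel excision of extended constructs; streptavidin-bead capture; RT-PCR. Fitness, taken from Illumina sequencing of input and output libraries, is the logarithm of a genotype's enrichment over wild-type enrichment, averaged across replicates with inverse-variance weights. The logarithm is base 2, and genotypes needed ≥10 input reads and ≥1 read per output to be kept.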

Q: Which “polymerase ribozyme fitness (log ratio)” value does the source give for C13U C89G here?
A: Its value is -1.01.

Q: For C13U C72U, which “polymerase ribozyme fitness (log ratio)” value is on record?
A: The value was -0.334.

Q: For C15G C49G G61A C85A G110A, which “polymerase ribozyme fitness (log ratio)” value is on record?
A: Its value is -3.95.

Q: For C15G G63C U96C G117C U130G, which “polymerase ribozyme fitness (log ratio)” value is on record?
A: The value was -0.822.

Q: With U14A G63C G113A as the variant, how does the “polymerase ribozyme fitness (log ratio)” value read?
A: The value was -4.74.

Q: Which “polymerase ribozyme fitness (log ratio)” value does the source give for C13U C28G G120C here?
A: The value was -1.05.

Q: Which “polymerase ribozyme fitness (log ratio)” value does the source give for U14G G63A here?
A: Its value is -2.49.

Q: With C15A G61U as the variant, how does the “polymerase ribozyme fitness (log ratio)” value read?
A: The value was -0.806.

Q: Which “polymerase ribozyme fitness (log ratio)” value does the source give for C13U C76U here?
A: The value was -0.121.

Q: Which “polymerase ribozyme fitness (log ratio)” value does the source give for C15A G48C C70U here?
A: The value was -3.

Q: Which “polymerase ribozyme fitness (log ratio)” value does the source give for U14G C56A G120C here?
A: The value was -0.0635.

Q: Which “polymerase ribozyme fitness (log ratio)” value does the source give for C15G A90C here?
A: Its value is -3.94.

Q: Which “polymerase ribozyme fitness (log ratio)” value does the source give for C13U G61A here?
A: The value was -0.508.

Q: For C15A G61A A83U G117C, which “polymerase ribozyme fitness (log ratio)” value is on record?
A: The value was -5.31.

Q: With C13U C34G G47U C72G U112A as the variant, how does the “polymerase ribozyme fitness (log ratio)” value read?
A: Its value is -5.6.

Q: For U14A C49G G61C A66U, which “polymerase ribozyme fitness (log ratio)” value is on record?
A: Its value is -5.01.

Q: Which “polymerase ribozyme fitness (log ratio)” value does the source give for U14C A50U U96C C115U A121U here?
A: Its value is -5.13.

Q: With C15U A16U G71A C115A as the variant, how does the “polymerase ribozyme fitness (log ratio)” value read?
A: Its value is -3.96.

Q: For C15A G120C, which “polymerase ribozyme fitness (log ratio)” value is on record?
A: Its value is -0.2.

Q: For C15A G120U, which “polymerase ribozyme fitness (log ratio)” value is on record?
A: Its value is -1.44.

Q: Which “polymerase ribozyme fitness (log ratio)” value does the source give for C13U C49U G57A C82G U106A here?
A: Its value is -0.895.

Q: With C15A G48C C123G as the variant, how does the “polymerase ribozyme fitness (log ratio)” value read?
A: Its value is -1.77.

Q: Which “polymerase ribozyme fitness (log ratio)” value does the source give for C13U G39C G63U U125G U133A here?
A: The value was -2.15.

Q: For C13U C98A, which “polymerase ribozyme fitness (log ratio)” value is on record?
A: Its value is -4.9.

Q: For C15G A43U C49U A74G, which “polymerase ribozyme fitness (log ratio)” value is on record?
A: Its value is -4.91.

Q: For C15A G120C U129A, which “polymerase ribozyme fitness (log ratio)” value is on record?
A: Its value is -1.24.

Q: Which “polymerase ribozyme fitness (log ratio)” value does the source give for C15A A16U C88A here?
A: The value was -3.46.

Q: With C15A C53U G63C as the variant, how does the “polymerase ribozyme fitness (log ratio)” value read?
A: Its value is -2.5.

Q: With U14C G51U C104U as the variant, how does the “polymerase ribozyme fitness (log ratio)” value read?
A: Its value is -4.54.

Q: With C15G U59G as the variant, how does the “polymerase ribozyme fitness (log ratio)” value read?
A: Its value is -2.27.

Q: For C13U C20G G45A U96A, which “polymerase ribozyme fitness (log ratio)” value is on record?
A: The value was -4.96.

Q: For C13U C56U A111G, which “polymerase ribozyme fitness (log ratio)” value is on record?
A: The value was 0.163.

Q: With C13G G110A as the variant, how does the “polymerase ribozyme fitness (log ratio)” value read?
A: Its value is -1.87.

Q: For U14G C56G A84U U106C G110U, which “polymerase ribozyme fitness (log ratio)” value is on record?
A: Its value is -5.11.

Q: For U14A U33G C34A G47C C70U U112A G127A, which “polymerase ribozyme fitness (log ratio)” value is on record?
A: Its value is -6.98.

Q: For C13U G71U A111G U126G, which “polymerase ribozyme fitness (log ratio)” value is on record?
A: The value was -0.972.

Q: Which “polymerase ribozyme fitness (log ratio)” value does the source give for U14G C101U U126G here?
A: The value was -4.96.

Q: For C15G A43U C56U, which “polymerase ribozyme fitness (log ratio)” value is on record?
A: The value was -3.19.

Q: With C15A A16U C20A C89G G117U as the variant, how does the “polymerase ribozyme fitness (log ratio)” value read?
A: The value was -3.6.

Q: For C13U A43C G71A C82A C98G C102A A105U G117C, which “polymerase ribozyme fitness (log ratio)” value is on record?
A: Its value is -6.77.

Q: With C13U G52U G110U U133C as the variant, how does the “polymerase ribozyme fitness (log ratio)” value read?
A: The value was -1.33.

Q: Which “polymerase ribozyme fitness (log ratio)” value does the source give for C15G C56G U87G U112G G113A C123G G135A here?
A: Its value is -3.08.

Q: Which “polymerase ribozyme fitness (log ratio)” value does the source give for C15G A29G C64U C76G C99U U112A here?
A: The value was -6.38.

Q: Which “polymerase ribozyme fitness (log ratio)” value does the source give for C15A A66G U81C here?
A: Its value is -4.15.

Q: Which “polymerase ribozyme fitness (log ratio)” value does the source give for U14C C22U U32C here?
A: Its value is -5.53.

Q: For C15G G52U C89G G117C, which “polymerase ribozyme fitness (log ratio)” value is on record?
A: Its value is -1.36.

Q: For C15G C70G A90G C114G, which “polymerase ribozyme fitness (log ratio)” value is on record?
A: Its value is -6.41.

Q: With U14G U21C G42U as the variant, how does the “polymerase ribozyme fitness (log ratio)” value read?
A: Its value is -3.13.

Q: With C15A C94U as the variant, how does the “polymerase ribozyme fitness (log ratio)” value read?
A: Its value is -1.87.

Q: With C15G U112C as the variant, how does the “polymerase ribozyme fitness (log ratio)” value read?
A: Its value is -1.42.

Q: With C13U U59A G60A C80U A95C G120U as the variant, how does the “polymerase ribozyme fitness (log ratio)” value read?
A: The value was -1.94.

Q: Which “polymerase ribozyme fitness (log ratio)” value does the source give for U14G C22U A29G C124G U129C here?
A: The value was -3.15.

Q: Which “polymerase ribozyme fitness (log ratio)” value does the source give for C13U U112A C123A G128C here?
A: Its value is -1.12.

Q: For U14A C49U G60A A100U U106A, which “polymerase ribozyme fitness (log ratio)” value is on record?
A: The value was -3.83.

Q: Which “polymerase ribozyme fitness (log ratio)” value does the source give for U14A A37C C40A G69U here?
A: Its value is -4.24.

Q: Which “polymerase ribozyme fitness (log ratio)” value does the source give for C13G U54C C85U U87C here?
A: Its value is -1.99.

Q: Which “polymerase ribozyme fitness (log ratio)” value does the source give for C15A C20U here?
A: Its value is -3.39.

Q: For C13U G19A G45C U59C C82U U112A, which “polymerase ribozyme fitness (log ratio)” value is on record?
A: The value was 0.0802.

Q: With C13U G61C G93U U132C as the variant, how does the “polymerase ribozyme fitness (log ratio)” value read?
A: Its value is -2.93.

Q: For U14C U54G C62U, which “polymerase ribozyme fitness (log ratio)” value is on record?
A: Its value is -1.69.

Q: Which “polymerase ribozyme fitness (log ratio)” value does the source give for C13U G57A C102A G127C here?
A: The value was -3.71.

Q: For C15U A18C, which “polymerase ribozyme fitness (log ratio)” value is on record?
A: Its value is -3.52.

Q: With C15A C70U G93C C124G G128C as the variant, how does the “polymerase ribozyme fitness (log ratio)” value read?
A: Its value is -4.17.

Q: With C13U G71A as the variant, how does the “polymerase ribozyme fitness (log ratio)” value read?
A: Its value is -0.0397.

Q: For U14G U54C, which “polymerase ribozyme fitness (log ratio)” value is on record?
A: The value was -2.42.

Q: Which “polymerase ribozyme fitness (log ratio)” value does the source give for U14G G42C A46C C53U G61A here?
A: Its value is -4.45.

Q: For C15A G77A U96A, which “polymerase ribozyme fitness (log ratio)” value is on record?
A: The value was -3.85.

Q: With C13U U14C G69U C70U A90G as the variant, how does the “polymerase ribozyme fitness (log ratio)” value read?
A: Its value is -2.94.

Q: For C15A U54G A90U, which “polymerase ribozyme fitness (log ratio)” value is on record?
A: The value was -3.13.

Q: For C13U G60A, which “polymerase ribozyme fitness (log ratio)” value is on record?
A: The value was 0.0451.

Q: With C13U G60U as the variant, how does the “polymerase ribozyme fitness (log ratio)” value read?
A: The value was -0.0139.

Q: Which “polymerase ribozyme fitness (log ratio)” value does the source give for C13U A18U here?
A: Its value is -0.945.

Q: With C15G A41G C104U as the variant, how does the “polymerase ribozyme fitness (log ratio)” value read?
A: Its value is -2.92.

Q: With U14A U21G as the variant, how does the “polymerase ribozyme fitness (log ratio)” value read?
A: The value was -1.66.

Q: For C13U G120A, which “polymerase ribozyme fitness (log ratio)” value is on record?
A: The value was 1.58.

Q: For C13U G120C, which “polymerase ribozyme fitness (log ratio)” value is on record?
A: Its value is 1.89.

Q: Which “polymerase ribozyme fitness (log ratio)” value does the source give for U14A A84C G122A here?
A: Its value is -1.57.

Q: Which “polymerase ribozyme fitness (log ratio)” value does the source give for U14C G48U C72G here?
A: Its value is -2.66.

Q: Which “polymerase ribozyme fitness (log ratio)” value does the source give for C13U A18U C31U C64G A103C G110A here?
A: The value was -5.64.

Q: With C15G G44U C72U as the variant, how does the “polymerase ribozyme fitness (log ratio)” value read?
A: The value was -4.59.

Q: Which “polymerase ribozyme fitness (log ratio)” value does the source give for C15A G45U A84U C123U here?
A: Its value is -2.4.

Q: With C13U U55G C72U as the variant, how does the “polymerase ribozyme fitness (log ratio)” value read?
A: The value was -0.221.

Q: With C13U C40U A43U C72G A84G C89G as the variant, how does the “polymerase ribozyme fitness (log ratio)” value read?
A: Its value is -6.24.

Q: For C13U G17A, which “polymerase ribozyme fitness (log ratio)” value is on record?
A: Its value is -1.44.
